Reference: US20250270339A1 (Alector, published 2025)
Numbering of substitutions follows the chain as printed.

T1: huTfR Apical Domain-Avi-His (human, biotin on the Avi tag (BirA) where captured on streptavidin)
T1 construct: also called huTfR apical Avi-His; hTfR Apical
T1 chain: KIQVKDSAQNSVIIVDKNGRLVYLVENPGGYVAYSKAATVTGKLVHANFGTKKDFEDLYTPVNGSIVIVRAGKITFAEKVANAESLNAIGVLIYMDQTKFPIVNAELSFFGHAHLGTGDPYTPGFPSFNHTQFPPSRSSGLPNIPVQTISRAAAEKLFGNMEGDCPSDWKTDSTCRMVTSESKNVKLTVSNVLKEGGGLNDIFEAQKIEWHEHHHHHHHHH

B1: TfR2 (mouse hybridoma antibody) (antibody, V domains shown)
VH: EVQLQQSGPELVKPGASVKISCKASGYTFTDYNMHWVKQSHGKSLEWIGYIYPYNGGTGYNQKFKSKATLTVDNSSSTAYMELRSLTSEDSAVYYCATLYDGYYFDYWGQGTTLTVSS
VL: DILLTQSPAILSVSPGERVSFSCRASQSIGTSIHWYQQRTNGSPRLLIKYASESISGIPSRFSGSGSGTDFTLSINNVESEDIADYYCQQSNSWPFTFGSGTKLEIK
notes: mouse IgG in hybridoma supernatant
B2: TfR1 (mouse hybridoma antibody) (antibody, V domains shown)
VH: QVQLQQSGPELVKPGASVKMSCKASGYTFTNYYIHWVKQRPGQGLEWIGWIYPGDGSTKYNEKFKGKTTLTADKSSSTAYMLLSSLTSEDSAIYFCARDGSSAPKFTYWGQGTLVTVSA
VL: DIVMTQSPSSLTVTAGEKVTMRCKSSQSLLNSGNQKNYLTWYQQKPGQPPKLLIYWASTRESGVPDRFTGSGSGTDFTLTISSVQAEDLAVYYCQNDYSYPLTFGAGTKLELK
notes: as for B1
B3: TfR3 (mouse hybridoma antibody) (antibody, V domains shown)
VH: QVQLRQSGPELVKPGASVRISCKASGYTFTSFYIHWVKQRPGQGLEWIGWIYPGDVNTHYSDKFKGKATLTADKSSSTAYMQLSSLTSEDSAVYFCAREGYGYFAYWGQGTLVTVSA
VL: B2 VL with R22S, S71V, A106S
notes: as for B1
B4: TfR10 (mouse hybridoma antibody) (antibody, V domains shown)
VH: QVQLQQSGPELVKPGASVKMSCKASGYTFTSYYIHWVKQRPGQGLEWIGWIYPGDGNTNYNEKFKGKTTLTADKSSSTAYMLLSSLTSEDSAIYFCARDGSIPFAYWGQGTLVTVSA
VL: B2 VL with R22S
notes: as for B1
B5: TfR24 (mouse hybridoma antibody) (antibody, V domains shown)
VH: B4 VH with A16T, G56D, N59H, K63N, G100Y, S101Y, I102G, P103R
VL: B2 VL with K18R, R22S, Y42F, L79V, S99G
notes: as for B1
B6: TfR5 (mouse hybridoma antibody) (antibody, V domains shown)
VH: B2 VH with S57N, K59N
VL: B2 VL with I54F
notes: as for B1
B7: TfR6 (mouse hybridoma antibody) (antibody, V domains shown)
VH: DVQLVESGGGLVQPGGSRKLSCAASGFTFSSFGMHWVRQAPEKGLEWVAYISSGSSAIYYADTVKGRFTVSRDNPKNTLFLQMTSLRSEDTAIYYCATSYVYDPPWFAYWGQGTLVTVSA
VL: DIVMTQSHKFMSTSVGDRVSITCKASQDVSTAVAWYQQKPGQSPKLLIYWASTRPTGVPDRFTGSGSGTDYTLTISSVQAEDLALYSCQQHFSTPWTFGGGTKLEIK
notes: as for B1
B8: TfR4 (mouse hybridoma antibody) (antibody, V domains shown)
VH: QVQLQQSGAELVRPGTSVKVSCKASGYAFTNYLIEWVKQRPGQGLEWIGVINPGSGGTTYNEKFKGKATLTADKSSSTAYMQLSGLTSDDSAVYFCARRSPYFDYWGQGTTLTVSS
VL: SIVMTQTPKFLLVSAGDRVTITCKASQSVSNDVAWYQQKPGQSPKLLIYYASNRYTGVPDRFTGSGYGTDFTFTISTVQAEDLAVYFCHQDYISPTFGGGTKLEIK
notes: as for B1
B9: TfR8 (mouse hybridoma antibody) (antibody, V domains shown)
VH: B8 VH with T59N, G85S
VL: B8 VL
notes: as for B1
B10: TfR18 (mouse hybridoma antibody) (antibody, V domains shown)
VH: B8 VH with V37I, S55N, G56N, G57D, K63M, G66A, A68T, S77N, G85S
VL: B8 VL with I93S
notes: as for B1
B11: TfR30 (mouse hybridoma antibody) (antibody, V domains shown)
VH: QVQLQQSGPQLVRPGASVKISCKASGYSFTNYWLHWVKQRPGQGLEWIGMIDPSDSETRLNQKFKDKATLTVDKSSSTAYMQLSSPTSEDSAVYYCARWGGGYYGFAYWGQGTLVTVSA
VL: DIVMTQSQKFMSTSVGDRVSITCKASQNVRTAVAWYQQKPGQSPKALIYLASNRHTGVPDRFTGSGSGTDFTLTISNVQSEDLADYFCLQHWNYPWTFGGGTKLEIK
notes: as for B1
B12: TfR7 (mouse hybridoma antibody) (antibody, V domains shown)
VH: DVQLQESGPGLVKPSQSLSLTCTVTGYSITSDYAWNWLRQFPGNKLEWMGYISYSGYSRHNPSLKSRISITRDTSKNQFFLQLNSVTSEDTATYYCARGDWDFDYWGQGTTLTVSS
VL: DIVMTQSQKFMSTSVGDRVSVTCKASQNVLTNVAWYQQKPGHSPKALIYSSSSRNSGVPDRFTGSGSGTDFTLTISNVQSEDLAEYFCQQYNTYPYTFGGGTKLEIK
notes: as for B1
B13: TfR11 (mouse hybridoma antibody) (antibody, V domains shown)
VH: EVQLQQSGTVLARPGASVKMSCKASGYSFTSYWMHWVKQRPGQGLEWIGAIFPGNIDTIYNQKFKDKAKLTAVTSASTAYMELSSLTNEDSAVYFCTRLYYDYVWGAGTTVTVSS
VL: DIKMTQSPSSMYASLGERVTLTCKASQDINSYLSWFQQKPGKSPKTLIYHVNRLVDGVPSRFSGSGSGQDYSLTISSLEYEDMGIYYCLQYDEFPYTFGGGTKLEIK
notes: as for B1
B14: TfR9 (mouse hybridoma antibody) (antibody, V domains shown)
VH: EVQLQQSGPELVKPGASVKISCKTSGYTFTEYAMHWVKQSHGKSLEWIGGINPNDGGTSYNQKFKGKATLTVDKSSSTAYMELRSLTSEDSAVYYCSSQRWLLRGGDYWGQGTTLTVSS
VL: not shown
notes: as for B1

How the values were obtained:
[1] = target: T2, Full length Mouse TfR on CHO cells (mouse, UniProt Q62351 1-763); assay: FACS MFI, supernatant
T2 construct: also called CHO + muTfR
Experimental: (§1) A total of 1536 anti-TfR hybridoma supernatants were initially screened for their ability to differentially bind CHO cells overexpressing human or mouse TfR cells compared to CHO parental cells by FACS. Overexpressing cells were harvested, washed and labeled with Pacific Blue, FITC and Pacific Orange dyes (ThermoFisher) to create uniquely barcoded cell populations. Barcoded cells (5×10⁴ of each cell population) were aliquoted into 96-well U-bottom plates and incubated with 50 μl of hybridoma cell culture supernatant or […] of commercially available purified mouse anti-human TfR monoclonal antibody (Sigma Aldrich, Cat #SAB4700515) and rat anti-mouse TfR antibody (Invitrogen, Waltham, MA, Cat #R17217) on ice for 30 minutes. After this primary incubation, the supernatants were removed via centrifugation, the cells were washed twice with 175 μl of ice-cold FACS buffer (PBS+1% FBS+2 mM EDTA), and the cells were then further incubated on ice for 20 minutes with anti-mouse IgG Fc-allophycocyanin (APC) or anti-rat IgG Fc-APC (Jackson Labs, Cat #115-136-071 and Cat #112-136-071, respectively) (diluted 1:1000). Following this secondary antibody incubation, the cells were again washed twice with ice-cold FACS buffer and resuspended in a final volume of 50 μl of FACS buffer. Binding intensity on cells was analyzed using the FACS Canto system (BD Biosciences), and the ratio of APC Mean Fluorescence Intensity (MFI) on each barcoded cell population was determined for each anti-TfR hybridoma supernatant tested.

[2] = target: T3, Full length human TfR on CHO cells (human, UniProt P02786 1-760); assay: FACS MFI, supernatant
T3 construct: also called CHO + huTfR; CHO + hTfR
Experimental: as §1

[3] = target: T1, huTfR Apical Domain-Avi-His; assay: ELISA OD450, supernatant
Experimental: Hybridoma culture supernatants from 319 hybridomas obtained as described above were screened for their ability to bind Avi-His-tagged huTfR ECD, huTfR apical domain, and muTfR ECD (as described in Example 1) as compared to binding to an irrelevant Avi-His-tagged control protein. Briefly, 96-well polystyrene plates were coated with 5 μg/ml of streptavidin (Thermo Fisher, Cat #PI21125) in coating buffer (0.05M carbonate buffer, pH 9.6, Sigma, Cat #C3041) overnight at 4° C. Coated plates were then blocked with ELISA diluent (PBS+0.5% BSA+0.05% Tween20) for one hour. Blocking buffer was removed and Avi-His-tagged human TfR, human TfR apical domain, mouse TfR and an irrelevant Avi-His-tagged protein were added at 1 μg/ml in ELISA diluent and captured for 1 hour at room temperature. After washing three times with 300 μl of PBST (PBS+0.05% Tween20, Thermo 28352), the hybridoma cell culture supernatants were added (50 μl/well) to each well. After 30 minutes of incubation at room temperature, the plates were washed three times with 300 μl of PBST. Anti-mouse IgG Fc-HRP or anti-rat IgG Fc-HRP (Jackson Immunoresearch, Cat #115-035-071 and 112-036-071, respectively) secondary antibodies were diluted 1:5000 in ELISA diluent, added to each well at 50 μl/well, and incubated for 30 minutes at room temperature with shaking. After a final set of washes (3×300 μl in PBST), 50 μl/well of BioFx TMB substrate (Surmodics, Cat #TMBW-1000-01) was added to the wells. The reaction was then quenched after 5-10 mins with 50 μl/well of 2N sulfuric acid. The plates were read for absorbance at 450 nm on a SpectraMax M5 (Molecular Devices, Sunnyvale, CA) using SoftMax Pro software.

[4] = target: T2, Full length Mouse TfR on CHO cells; assay: FACS, CHO+muTfR
Experimental: as §1

T2 sequence (Q62351 whole entry): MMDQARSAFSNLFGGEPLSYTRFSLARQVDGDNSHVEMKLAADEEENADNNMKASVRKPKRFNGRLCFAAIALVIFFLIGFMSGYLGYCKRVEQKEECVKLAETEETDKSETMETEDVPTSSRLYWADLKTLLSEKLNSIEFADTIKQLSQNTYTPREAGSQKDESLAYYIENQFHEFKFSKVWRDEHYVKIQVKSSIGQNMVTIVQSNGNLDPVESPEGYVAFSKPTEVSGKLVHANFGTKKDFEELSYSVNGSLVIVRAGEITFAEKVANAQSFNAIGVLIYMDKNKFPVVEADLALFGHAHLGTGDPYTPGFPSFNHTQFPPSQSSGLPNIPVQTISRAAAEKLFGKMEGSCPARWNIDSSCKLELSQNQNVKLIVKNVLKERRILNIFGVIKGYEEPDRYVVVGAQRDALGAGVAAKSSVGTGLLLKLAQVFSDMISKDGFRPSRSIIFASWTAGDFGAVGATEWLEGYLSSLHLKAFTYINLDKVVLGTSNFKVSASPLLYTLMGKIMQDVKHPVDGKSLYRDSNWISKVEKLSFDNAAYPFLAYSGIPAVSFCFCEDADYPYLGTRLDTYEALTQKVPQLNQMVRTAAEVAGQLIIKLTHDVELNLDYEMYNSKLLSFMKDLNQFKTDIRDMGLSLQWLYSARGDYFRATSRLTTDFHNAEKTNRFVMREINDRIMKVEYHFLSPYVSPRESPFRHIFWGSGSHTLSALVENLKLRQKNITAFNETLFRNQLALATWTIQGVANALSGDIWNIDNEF
T3 sequence (P02786 whole entry): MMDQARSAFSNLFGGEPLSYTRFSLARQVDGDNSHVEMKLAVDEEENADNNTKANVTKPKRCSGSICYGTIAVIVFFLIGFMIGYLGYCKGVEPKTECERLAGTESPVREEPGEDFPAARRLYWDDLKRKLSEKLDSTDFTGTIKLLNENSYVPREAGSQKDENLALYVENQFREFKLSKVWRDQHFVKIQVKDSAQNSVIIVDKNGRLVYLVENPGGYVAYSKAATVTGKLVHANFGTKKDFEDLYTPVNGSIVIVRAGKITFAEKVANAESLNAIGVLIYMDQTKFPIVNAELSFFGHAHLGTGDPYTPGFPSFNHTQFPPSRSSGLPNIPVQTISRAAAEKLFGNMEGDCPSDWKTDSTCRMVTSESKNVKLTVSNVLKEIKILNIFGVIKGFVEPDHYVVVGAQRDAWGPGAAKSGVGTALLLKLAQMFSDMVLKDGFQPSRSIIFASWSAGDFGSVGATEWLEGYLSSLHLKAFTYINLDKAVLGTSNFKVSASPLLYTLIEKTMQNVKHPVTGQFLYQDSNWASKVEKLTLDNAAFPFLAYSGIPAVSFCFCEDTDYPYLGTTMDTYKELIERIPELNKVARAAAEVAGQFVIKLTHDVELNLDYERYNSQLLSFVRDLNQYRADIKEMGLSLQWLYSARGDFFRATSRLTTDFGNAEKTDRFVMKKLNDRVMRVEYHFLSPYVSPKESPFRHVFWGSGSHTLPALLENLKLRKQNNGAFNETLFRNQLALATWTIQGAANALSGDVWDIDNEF

| Binder | fold over parental (CHO WT) [1] | fold over parental (CHO WT) [2] | ratio over irrelevant protein [3] | binding result [4] |
| --- | --- | --- | --- | --- |
| B1 | 1 fold | 458 fold | 5 fold | no binding |
| B2 | 1 fold | 228 fold | 22 fold | no binding |
| B3 | 1 fold | 38 fold | 37 fold | no binding |
| B4 | 1 fold | 389 fold | 35 fold | no binding |
| B5 | 1 fold | 370 fold | 31 fold | no binding |
| B6 | 1 fold | 561 fold | 15 fold | no binding |
| B7 | 1 fold | 451 fold | 37 fold | no binding |
| B8 | 1 fold | 61 fold | 42 fold | no binding |
| B9 | 1 fold | 215 fold | 37 fold | no binding |
| B10 | 1 fold | 75 fold | 32 fold | no binding |
| B11 | 1 fold | 169 fold | 29 fold | – |
| B12 | 1 fold | 87 fold | 48 fold | no binding |
| B13 | 1 fold | 290 fold | 39 fold | no binding |
| B14 | 1 fold | 203 fold | 10 fold | no binding |
